# Results: paper doi:10.1101/2025.09.11.675134, “Biodistribution-Driven Discovery Identifies a Glycosidase-Cleavable Linker to Reprogram Radiotheranostics” (bioRxiv, 2025)
# Like-named read-outs stand apart in the source and are kept apart here.
# Assay: Ex vivo biodistribution of 225Ac-labeled variants in AR42J tumor-bearing mice
# Settings: athymic nu/nu, mouse, total radioactivity
# Method: Prior to conducting targeted alpha-particle therapy studies using three ^225Ac-labeled variants (Fig. S17) in AR42J xenograft-bearing mice, we first assessed their in vivo pharmacokinetics through ex vivo biodistribution studies at 24 h post-injection (Fig. 5A; Tables S4). […]
# For studies involving three variants (DOTA -TATE, DOTA-MVK(ε)-TATE, and DOTA-β-Gal-TATE), AR42J cells (5 × 10^6 cells per mouse) were subcutaneously inoculated into the right shoulder of the mice. Tumors were allowed to grow for 3 weeks, reaching a volume of 100 –200 mm³ before being used in subsequent experiments. […]
# All samples […]
# were weighed and counted on a gamma counter (2480 Wizard 3, Perkin Elmer Inc., Waltham, MA, USA). Results are presented as percentage of injected activity per gram (%IA/g) and mean values ± standard deviations. […]
# Prior to conducting alpha particle therapy, biodistribution studies with 225Ac-labeled DOTA - TATE variants (117 – 163 kBq, 1 μg) were performed at 24 hours and 4 days post -injection in athymic nu/nu mice bearing AR42J tumors (n = 4 – 5). Mice were euthanized by CO 2 asphyxiation, and 10 tissues, including tumors, were collected. All samples were weighed and counted on a gamma counter after equilibration for 12 hours. Results are presented as %IA/g and mean values ± standard deviations.
# [1] = iv, 1 ug, 225Ac-labeled, AR42J tumor-bearing mice, 24 h post-injection, ex vivo, mean (± SD), n = 4–5, read-out: Kidney uptake
# [2] = iv, 1 ug, 225Ac-labeled, AR42J tumor-bearing mice, 24 h post-injection, ex vivo, mean (± SD), n = 4–5, read-out: Liver uptake
# [3] = iv, 1 ug, 225Ac-labeled, AR42J tumor-bearing mice, 24 h post-injection, ex vivo, mean (± SD), n = 4–5, read-out: Tumor uptake
# [4] = iv, 1 ug, 225Ac-labeled, AR42J tumor-bearing mice, 24 h post-injection, ex vivo, mean, n = 4–5, read-out: Femur uptake
# [5] = iv, 1 ug, 225Ac-labeled, AR42J tumor-bearing mice, 24 h post-injection, ex vivo, mean, n = 4–5, read-out: Intestine uptake
# [6] = iv, 1 ug, 225Ac-labeled, AR42J tumor-bearing mice, 24 h post-injection, ex vivo, mean, n = 4–5, read-out: Spleen uptake
# [7] = iv, 1 ug, 225Ac-labeled, AR42J tumor-bearing mice, 24 h post-injection, i.v. 1 μg (117–163 kBq), ex vivo gamma counting, mean, n = 4–5, read-out: Blood uptake
# [8] = iv, 1 ug, 225Ac-labeled, AR42J tumor-bearing mice, 4 days post-injection, ex vivo, mean, n = 4–5, read-out: Blood uptake
# [9] = iv, 1 ug, 225Ac-labeled, AR42J tumor-bearing mice, 4 days post-injection, ex vivo, mean, n = 4–5, read-out: Femur uptake
# [10] = iv, 1 ug, 225Ac-labeled, AR42J tumor-bearing mice, 4 days post-injection, ex vivo, mean, n = 4–5, read-out: Intestine uptake
# [11] = iv, 1 ug, 225Ac-labeled, AR42J tumor-bearing mice, 4 days post-injection, ex vivo, mean, n = 4–5, read-out: Kidney uptake
# [12] = iv, 1 ug, 225Ac-labeled, AR42J tumor-bearing mice, 4 days post-injection, ex vivo, mean, n = 4–5, read-out: Liver uptake
# [13] = iv, 1 ug, 225Ac-labeled, AR42J tumor-bearing mice, 4 days post-injection, ex vivo, mean, n = 4–5, read-out: Muscle uptake
# [14] = iv, 1 ug, 225Ac-labeled, AR42J tumor-bearing mice, 4 days post-injection, ex vivo, mean, n = 4–5, read-out: Spleen uptake
# [15] = 225Ac-labeled, AR42J tumor-bearing mice, 24 h post-injection, ex vivo, mean, n = 4–5, read-out: Heart uptake
# [16] = 225Ac-labeled, AR42J tumor-bearing mice, 24 h post-injection, ex vivo, mean, n = 4–5, read-out: Lung uptake
# [17] = 225Ac-labeled, AR42J tumor-bearing mice, 24 h post-injection, ex vivo, mean, n = 4–5, read-out: Muscle uptake
# [18] = 225Ac-labeled, AR42J tumor-bearing mice, 4 days post-injection, ex vivo, mean, n = 4–5, read-out: Heart uptake
# [19] = 225Ac-labeled, AR42J tumor-bearing mice, 4 days post-injection, ex vivo, mean, n = 4–5, read-out: Lung uptake
compound,measurement,setting,value
"CSCC[C@H](NC(=O)CN1CCN(CC(=O)O)CCN(CC(=O)O)CCN(CC(=O)O)CC1)C(=O)N[C@H](C(=O)N[C@@H](CCCCNC(=O)CCCC(=O)N[C@H](Cc1ccccc1)C(=O)N[C@H]1CSSC[C@@H](C(=O)N[C@H](C(=O)O)[C@@H](C)O)NC(=O)[C@H]([C@@H](C)O)NC(=O)[C@H](CCCCN)NC(=O)[C@@H](Cc2c[nH]c3ccccc23)NC(=O)[C@H](Cc2ccc(O)cc2)NC1=O)C(=O)O)C(C)C [^225Ac-DOTA-MVK(ε)-TATE, metal not drawn]",tissue uptake at 24 h,[1],1.27 ± 0.25 %ID/g
same,tissue uptake at 24 h,[2],0.61 ± 0.06 %ID/g
same,tissue uptake at 24 h,[3],3.83 ± 0.51 %ID/g
same,tissue uptake at 24 h,[4],0.33 %ID/g
same,tissue uptake at 24 h,[5],0.11 %ID/g
same,tissue uptake at 24 h,[6],0.32 %ID/g
same,tissue uptake at 24 h,[7],0.03 %ID/g
same,tissue uptake at 96 h,[8],0.03 %ID/g
same,tissue uptake at 96 h,[9],0.32 %ID/g
same,tissue uptake at 96 h,[10],0.07 %ID/g
same,tissue uptake at 96 h,[11],0.43 %ID/g
same,tissue uptake at 96 h,[12],0.42 %ID/g
same,tissue uptake at 96 h,[13],0.15 %ID/g
same,tissue uptake at 96 h,[14],0.19 %ID/g
same,tissue to tissue ratio at 24 h,,3.05 ± 0.37
same,tissue to tissue ratio at 96 h,,5.72 ± 0.91
same,tissue uptake at 96 h,,2.41 ± 0.22 %ID/g
same,tissue uptake at 24 h,[15],0.08 %ID/g
same,tissue uptake at 24 h,[16],0.14 %ID/g
same,tissue uptake at 24 h,[17],0.09 %ID/g
same,tissue uptake at 96 h,[18],0.12 %ID/g
same,tissue uptake at 96 h,[19],0.11 %ID/g
"C[C@@H](O)[C@H](NC(=O)[C@@H]1CSSC[C@H](NC(=O)[C@@H](Cc2ccccc2)NC(=O)CN2CCN(CC(=O)O)CCN(CC(=O)O)CCN(CC(=O)O)CC2)C(=O)N[C@@H](Cc2ccc(O)cc2)C(=O)N[C@H](Cc2c[nH]c3ccccc23)C(=O)N[C@@H](CCCCN)C(=O)N[C@@H]([C@@H](C)O)C(=O)N1)C(=O)O [^225Ac-DOTA-TATE, metal not drawn, reference compound]",tissue uptake at 24 h,[1],4.19 ± 0.28 %ID/g
same,tissue uptake at 24 h,[2],0.29 ± 0.02 %ID/g
same,tissue uptake at 24 h,[3],3.4 ± 0.34 %ID/g
same,tissue uptake at 24 h,[4],0.2 %ID/g
same,tissue uptake at 24 h,[5],0.09 %ID/g
same,tissue uptake at 24 h,[6],0.16 %ID/g
same,tissue uptake at 24 h,[7],0.03 %ID/g
same,tissue uptake at 96 h,[8],0.04 %ID/g
same,tissue uptake at 96 h,[9],0.41 %ID/g
same,tissue uptake at 96 h,[10],0.1 %ID/g
same,tissue uptake at 96 h,[11],1.02 %ID/g
same,tissue uptake at 96 h,[12],0.65 %ID/g
same,tissue uptake at 96 h,[13],0.16 %ID/g
same,tissue uptake at 96 h,[14],0.27 %ID/g
same,tissue uptake at 96 h,,1.14 ± 0.37 %ID/g
same,tissue uptake at 24 h,[15],0.06 %ID/g
same,tissue uptake at 24 h,[16],0.14 %ID/g
same,tissue uptake at 24 h,[17],0.1 %ID/g
same,tissue uptake at 96 h,[18],0.14 %ID/g
same,tissue uptake at 96 h,[19],0.16 %ID/g
"C[C@@H](O)[C@H](NC(=O)[C@@H]1CSSC[C@H](NC(=O)[C@@H](Cc2ccccc2)NC(=O)CCCC(=O)Nc2cc(COC(=O)N(C)CCNC(=O)CN3CCN(CC(=O)O)CCN(CC(=O)O)CCN(CC(=O)O)CC3)ccc2O[C@@H]2O[C@H](CO)[C@H](O)[C@H](O)[C@H]2O)C(=O)N[C@@H](Cc2ccc(O)cc2)C(=O)N[C@H](Cc2c[nH]c3ccccc23)C(=O)N[C@@H](CCCCN)C(=O)N[C@@H]([C@@H](C)O)C(=O)N1)C(=O)O [^225Ac-DOTA-β-Gal-TATE, metal not drawn]",tissue uptake at 24 h,[1],0.89 ± 0.08 %ID/g
same,tissue uptake at 24 h,[2],0.89 ± 0.49 %ID/g
same,tissue uptake at 24 h,[3],8.22 ± 1.84 %ID/g
same,tissue uptake at 24 h,[4],0.48 %ID/g
same,tissue uptake at 24 h,[5],0.17 %ID/g
same,tissue uptake at 24 h,[6],0.47 %ID/g
same,tissue uptake at 24 h,[7],0.04 %ID/g
same,tissue uptake at 96 h,[8],0.03 %ID/g
same,tissue uptake at 96 h,[9],0.42 %ID/g
same,tissue uptake at 96 h,[10],0.09 %ID/g
same,tissue uptake at 96 h,[11],0.28 %ID/g
same,tissue uptake at 96 h,[12],0.5 %ID/g
same,tissue uptake at 96 h,[13],0.22 %ID/g
same,tissue uptake at 96 h,[14],0.22 %ID/g
same,tissue uptake at 24 h,[15],0.1 %ID/g
same,tissue uptake at 24 h,[16],0.1 %ID/g
same,tissue uptake at 24 h,[17],0.1 %ID/g
same,tissue uptake at 96 h,"225Ac-labeled, AR42J tumor-bearing mice, 4 days post-injection, ex vivo, mean (± SD), n = 4–5, read-out: Tumor uptake",2.74 %ID/g
same,tissue uptake at 96 h,[18],0.13 %ID/g
same,tissue uptake at 96 h,[19],0.11 %ID/g
same,tissue to tissue ratio at 24 h,"225Ac-labeled, AR42J xenografts, 24 h post-injection, ex vivo, mean ± SD, n = 4, read-out: Tumor-to-kidney (T/K) ratio",9.12 ± 1.31
